Measured values from patent US20240270857A1 (CHIA TAI TIANQING PHARMACEUTICAL GROUP, published 2024).
Where a chain is given by its changes, count along the chain named.

T1: IL-36R naturally expressed on OVCAR8 cells and on normal human epidermal keratinocytes (NHK cells) (human, UniProt Q9HB29 20-575)
T1 sequence (looked up): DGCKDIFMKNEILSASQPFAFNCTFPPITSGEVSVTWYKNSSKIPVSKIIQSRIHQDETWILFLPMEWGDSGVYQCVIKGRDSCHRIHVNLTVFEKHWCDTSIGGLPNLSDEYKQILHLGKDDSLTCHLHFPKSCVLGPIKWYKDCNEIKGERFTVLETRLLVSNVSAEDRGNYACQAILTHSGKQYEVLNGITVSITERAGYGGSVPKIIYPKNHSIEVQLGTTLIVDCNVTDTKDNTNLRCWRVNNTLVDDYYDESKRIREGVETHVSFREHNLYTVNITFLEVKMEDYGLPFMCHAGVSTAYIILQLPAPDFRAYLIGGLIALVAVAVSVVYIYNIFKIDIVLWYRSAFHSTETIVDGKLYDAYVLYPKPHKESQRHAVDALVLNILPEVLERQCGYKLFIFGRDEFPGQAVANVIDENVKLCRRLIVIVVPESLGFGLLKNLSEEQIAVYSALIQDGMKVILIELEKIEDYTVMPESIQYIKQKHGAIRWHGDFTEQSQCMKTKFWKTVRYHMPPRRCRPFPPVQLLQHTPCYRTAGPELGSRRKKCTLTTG

T2: human IL-36R overexpressed on 293T-hIL36R-NFκB cells (human, UniProt Q9HB29 20-575)
T2 construct: Entry includes the signal peptide; also called IL1RL2; IL-1Rrp2
T2 sequence: T1 sequence (looked up)

T3: Human IL-1Rrp2/IL-1R6 protein, His Tag (ACROBiosystems, IL2-H52H6) (human, UniProt Q9HB29 20-335)
T3 construct: Bought protein; the soluble protein is likely only the extracellular part; also called hIL-36R; human IL36R antigen; not shown: His tag
T3 sequence: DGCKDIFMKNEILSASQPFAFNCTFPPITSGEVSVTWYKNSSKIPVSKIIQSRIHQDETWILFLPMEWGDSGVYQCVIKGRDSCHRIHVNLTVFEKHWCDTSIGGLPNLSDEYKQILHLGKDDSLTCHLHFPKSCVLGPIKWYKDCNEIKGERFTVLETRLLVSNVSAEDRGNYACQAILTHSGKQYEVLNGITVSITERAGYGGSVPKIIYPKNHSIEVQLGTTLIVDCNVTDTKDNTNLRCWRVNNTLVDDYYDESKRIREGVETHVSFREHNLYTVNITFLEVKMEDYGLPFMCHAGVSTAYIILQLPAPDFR

B1: hz72C1-1.2 (antibody, human IgG4 S228P, kappa)
heavy: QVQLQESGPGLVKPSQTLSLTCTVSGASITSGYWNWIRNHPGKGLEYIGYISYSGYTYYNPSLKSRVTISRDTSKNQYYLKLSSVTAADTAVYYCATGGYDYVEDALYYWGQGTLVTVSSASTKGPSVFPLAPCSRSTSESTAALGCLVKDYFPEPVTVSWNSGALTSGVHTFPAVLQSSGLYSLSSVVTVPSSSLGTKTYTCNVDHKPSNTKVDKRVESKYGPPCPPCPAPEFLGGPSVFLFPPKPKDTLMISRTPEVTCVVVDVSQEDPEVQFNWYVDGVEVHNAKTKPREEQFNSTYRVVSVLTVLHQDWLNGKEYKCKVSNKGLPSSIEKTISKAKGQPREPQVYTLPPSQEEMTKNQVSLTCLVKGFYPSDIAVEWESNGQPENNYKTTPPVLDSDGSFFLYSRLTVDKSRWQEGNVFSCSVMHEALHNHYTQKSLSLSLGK
light: DIQMTQSPSSLSASVGDRVTITCRASSNVRYMYWYQQKPGKAPKLWIYLTSNLASGVPSRFSGSGSGTSYTLTISSLQPEDFATYYCQQFTTSPYTFGQGTKLEIKRTVAAPSVFIFPPSDEQLKSGTASVVCLLNNFYPREAKVQWKVDNALQSGNSQESVTEQDSKDSTYSLSSTLTLSKADYEKHKVYACEVTHQGLSSPVTKSFNRGEC
notes: Humanized, human IgG4 / kappa
B2: hz72C1-2.2 (antibody, human IgG4 S228P, kappa)
heavy: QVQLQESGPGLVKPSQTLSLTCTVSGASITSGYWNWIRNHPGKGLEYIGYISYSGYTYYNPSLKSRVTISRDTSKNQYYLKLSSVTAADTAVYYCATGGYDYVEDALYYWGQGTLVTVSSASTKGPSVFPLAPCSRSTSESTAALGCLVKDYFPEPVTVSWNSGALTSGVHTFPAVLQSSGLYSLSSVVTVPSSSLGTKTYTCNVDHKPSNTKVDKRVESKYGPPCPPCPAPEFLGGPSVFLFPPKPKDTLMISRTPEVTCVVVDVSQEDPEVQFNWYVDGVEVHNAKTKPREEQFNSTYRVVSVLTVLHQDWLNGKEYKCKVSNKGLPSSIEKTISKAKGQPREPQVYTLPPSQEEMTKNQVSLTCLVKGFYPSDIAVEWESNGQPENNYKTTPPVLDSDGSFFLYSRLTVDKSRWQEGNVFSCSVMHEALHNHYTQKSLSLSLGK
light: B1 light with F90Y
notes: Humanized, human IgG4 / kappa
B3: hz72C1-1.3 (antibody, human IgG4 S228P, kappa)
heavy: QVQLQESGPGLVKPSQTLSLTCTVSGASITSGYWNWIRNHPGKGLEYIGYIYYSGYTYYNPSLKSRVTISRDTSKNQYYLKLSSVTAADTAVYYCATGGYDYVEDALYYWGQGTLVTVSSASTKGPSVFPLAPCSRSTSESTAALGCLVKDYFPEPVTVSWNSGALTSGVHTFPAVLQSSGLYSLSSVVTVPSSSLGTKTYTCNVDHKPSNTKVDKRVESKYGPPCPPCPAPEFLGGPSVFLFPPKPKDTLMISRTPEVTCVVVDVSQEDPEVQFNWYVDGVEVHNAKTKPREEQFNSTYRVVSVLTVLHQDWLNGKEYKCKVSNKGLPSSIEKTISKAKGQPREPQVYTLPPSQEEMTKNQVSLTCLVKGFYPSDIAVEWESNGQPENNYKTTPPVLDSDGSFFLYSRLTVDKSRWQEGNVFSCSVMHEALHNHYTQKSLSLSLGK
light: B1 light
notes: Humanized, human IgG4 / kappa
B4: hz72C1-1.1 (antibody, human IgG4 S228P, kappa)
heavy: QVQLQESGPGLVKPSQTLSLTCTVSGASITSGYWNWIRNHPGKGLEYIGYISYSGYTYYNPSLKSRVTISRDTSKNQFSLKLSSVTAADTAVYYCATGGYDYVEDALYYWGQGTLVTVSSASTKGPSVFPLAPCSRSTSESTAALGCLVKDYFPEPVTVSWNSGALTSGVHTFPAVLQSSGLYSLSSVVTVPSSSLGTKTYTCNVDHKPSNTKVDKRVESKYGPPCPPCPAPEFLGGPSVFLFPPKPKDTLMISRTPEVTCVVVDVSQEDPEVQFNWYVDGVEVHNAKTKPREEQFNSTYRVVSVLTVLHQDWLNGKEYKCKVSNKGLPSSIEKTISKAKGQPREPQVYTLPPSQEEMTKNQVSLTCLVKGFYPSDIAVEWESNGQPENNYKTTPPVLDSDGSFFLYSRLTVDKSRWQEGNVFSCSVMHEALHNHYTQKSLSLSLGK
light: B1 light
notes: Humanized, human IgG4 / kappa; also called humanized 72C1 antibody 1.1
B5: hz72C1-2.3 (antibody, human IgG4 S228P, kappa)
heavy: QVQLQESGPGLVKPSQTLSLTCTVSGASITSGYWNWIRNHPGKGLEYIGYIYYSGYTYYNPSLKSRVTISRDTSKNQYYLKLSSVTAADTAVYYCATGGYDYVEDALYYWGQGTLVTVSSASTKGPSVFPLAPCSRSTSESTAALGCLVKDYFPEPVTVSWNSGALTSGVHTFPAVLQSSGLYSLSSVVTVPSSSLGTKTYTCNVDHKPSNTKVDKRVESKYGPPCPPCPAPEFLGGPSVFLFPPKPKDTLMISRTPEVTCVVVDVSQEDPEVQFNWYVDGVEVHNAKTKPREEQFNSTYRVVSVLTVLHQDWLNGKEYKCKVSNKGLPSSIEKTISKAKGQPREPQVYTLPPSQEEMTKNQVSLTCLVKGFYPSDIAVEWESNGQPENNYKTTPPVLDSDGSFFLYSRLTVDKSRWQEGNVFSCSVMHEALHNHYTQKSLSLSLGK
light: B1 light with F90Y
notes: Humanized, human IgG4 / kappa
B6: hz72C1-2.1 (antibody, human IgG4 S228P, kappa)
heavy: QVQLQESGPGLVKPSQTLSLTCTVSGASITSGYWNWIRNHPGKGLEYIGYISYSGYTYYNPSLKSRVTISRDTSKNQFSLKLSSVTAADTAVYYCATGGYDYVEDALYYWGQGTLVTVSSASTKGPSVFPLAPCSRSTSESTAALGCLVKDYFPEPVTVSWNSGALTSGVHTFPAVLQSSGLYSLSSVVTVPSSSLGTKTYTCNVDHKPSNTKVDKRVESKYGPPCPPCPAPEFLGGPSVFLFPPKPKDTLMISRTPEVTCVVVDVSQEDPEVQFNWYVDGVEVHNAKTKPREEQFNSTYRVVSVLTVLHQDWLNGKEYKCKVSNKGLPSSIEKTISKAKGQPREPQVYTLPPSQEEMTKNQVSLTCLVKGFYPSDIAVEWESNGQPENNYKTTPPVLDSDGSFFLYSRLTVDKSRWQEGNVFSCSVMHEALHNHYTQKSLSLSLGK
light: B1 light with F90Y
notes: Humanized, human IgG4 / kappa

Molecular target: T1, IL-36R naturally expressed on OVCAR8 …
Assay: cell-based or functional assay

IC50 (M); hIL36α; IL-8 production [M]	IC50 (M); hIL36αβγ; IL-8 production [M]	IC50 (M); hIL36β; IL-8 production [M]	IC50 (M); hIL36γ; IL-8 production [M]	Maximum inhibition rate %; hIL36α; IL-8 production [%]	Maximum inhibition rate %; hIL36αβγ; IL-8 production [%]	Maximum inhibition rate %; hIL36β; IL-8 production [%]	Maximum inhibition rate %; hIL36γ; IL-8 production [%]	Binder
6.21e-11	8.82e-11	2.61e-11	1.38e-11	98.9	97.9	98.2	98.2	B1
1.94e-10	2.3e-10	1.45e-10	7.6e-11	98.5	97.1	98	97.7	B2
4.08e-11	8.4e-11	1.6e-11	2.42e-11	99	97.7	98.4	98.3	B3
3.02e-11	9.17e-11	4.11e-11	2.59e-11	99	97.5	98.4	98.2	B4
2.17e-10	3.58e-10	1.67e-10	5.31e-11	98.1	95	97.9	97.7	B5
1.43e-10	3.97e-10	9.9e-11	8.27e-11	98.6	96.4	98.3	97.8	B6

Molecular target: T2, human IL-36R overexpressed on …
Assay: FACS on 293T-hIL36R-NFκB cells, ratio of MFI to background MFI
Method: After the cells was washed with PBS, the cells were resuspended with 100 μL of PBS and then the fluorescence signal was detected using a flow cytometer (BD, Accuri C6). […] The ratio was the ratio of mean fluorescence intensity (MFI) of the experimental group/the background MFI, and the resulting data were analyzed using GraphPad Prism.
Affinity, binding and blocking assays for humanized antibodies hz72C1-1.1, hz72C1-1.2, hz72C1-1.3, hz72C1-2.1, hz72C1-2.2 and hz72C1-2.3 as well as hz84C4-1.1, hz84C4-1.2, hz84C4-1.3, hz84C4-1.4, hz84C4-1.5, hz84C4-2.1, hz84C4-2.2, hz84C4-2.3, hz84C4-2.4 and hz84C4-2.5 were performed according to the methods of Example 4, Example 5. Example 6, Example 7 and Example 8.

EC50 [nM]	Binder
11.9	B1
17.6	B2
11.9	B3
11.6	B4
20.2	B5
19.3	B6

Molecular target: T3, Human IL-1Rrp2/IL-1R6 protein, His Tag …
Assay: ELISA, plate coated with human IL-1Rrp2/IL-1R6 His Tag, HRP-protein A/G, OD450
Method: The binding activity of anti-IL-36R antibodies to IL-36R was analyzed by ELISA using human IL-1Rrp2/IL-1R6 protein, His Tag (ACROBiosystems, IL2-H52H6) and CynoIL36R-ECD mFc (for detection of chimeric and humanized antibodies), and hIL36R-ECD hFc and CynoIL36R-ECD hFc protein (for detection of hybridoma antibodies) as antigens. A 96-well plate (Costar, 9018) was coated with 2 μg/mL antigen at 100 μL/well and incubated overnight at 4° C. After the 96-well plate was washed with a washing buffer (PBS containing 0.05% v/v Tween 20), a blocking buffer (PBS containing 2% bovine serum albumin) was added for blocking at 37° C. for 2 h. After the 96-well plate was washed with the washing buffer, 100 μL of the gradient diluted anti-IL-36R antibody of the present disclosure or the reference antibody BI655130 (the initial concentration of the antibody was 66 nM, 4-fold gradient dilution) was added to each well, and the plate was incubated at room temperature for 1 h. After the 96-well plate was washed with the washing buffer, 100 μL of horseradish peroxidase-conjugated recombinant protein A/G (TheroScientific, 32490) was added to each well, and the plate was incubated at room temperature for 1 h. After the 96-well plate was washed with the washing buffer, 100 μL of a TMB solution (Thermo, 00-4201-56) was added to each well, and the plate was incubated at room temperature for 2 min. Finally, 100 μL of a stop solution (2 N H₂SO₄) was added to each well to stop the reaction. Absorbance was read at 450 nm using a microplate reader (PE, Envision), the resulting data was analyzed using GraphPad Prism, and EC₅₀ was calculated. Binding EC₅₀ of the chimeric anti-IL-36R antibodies to hIL-36R in an ELISA assay is shown in FIG. 1. and binding EC₅₀ of the chimeric anti-IL-36R antibodies to CynoIL-36R in an ELISA assay is shown in FIG. 2. The binding of BI655130 is shown as a control, and the binding of IgG4 is shown as a negative control.

EC50 [nM]	Binder
5.02	B1
4.88	B2
2.86	B3
2.94	B4
8.9	B5
9.35	B6
